Among the data in paper PMC8832513 are Kd values, retold here.

In the assay the target is RXFP1 construct pVL-11 (FLAG-eGFP-M82-S707-Avi) (human) (UniProt Q9HBX9). As to the kind of experiment: SPR; receptor constructs captured via biotinylated Avi-tag on an SA chip (3000-5000 RU), Biacore T200, 20°C; running buffer 20 mM HEPES pH 7.5, 150 mM NaCl, 0.01% BSA, 0.1% DDM, 0.01% CHS; relaxin injected at 0.41-100 nM; kinetic fits; triplicates. (In general: In SPR one partner is held on a chip, and binding of the other changes the refractive index at the surface.)
Chain of UniProt Q9HBX9 (Q9HBX9 82-707): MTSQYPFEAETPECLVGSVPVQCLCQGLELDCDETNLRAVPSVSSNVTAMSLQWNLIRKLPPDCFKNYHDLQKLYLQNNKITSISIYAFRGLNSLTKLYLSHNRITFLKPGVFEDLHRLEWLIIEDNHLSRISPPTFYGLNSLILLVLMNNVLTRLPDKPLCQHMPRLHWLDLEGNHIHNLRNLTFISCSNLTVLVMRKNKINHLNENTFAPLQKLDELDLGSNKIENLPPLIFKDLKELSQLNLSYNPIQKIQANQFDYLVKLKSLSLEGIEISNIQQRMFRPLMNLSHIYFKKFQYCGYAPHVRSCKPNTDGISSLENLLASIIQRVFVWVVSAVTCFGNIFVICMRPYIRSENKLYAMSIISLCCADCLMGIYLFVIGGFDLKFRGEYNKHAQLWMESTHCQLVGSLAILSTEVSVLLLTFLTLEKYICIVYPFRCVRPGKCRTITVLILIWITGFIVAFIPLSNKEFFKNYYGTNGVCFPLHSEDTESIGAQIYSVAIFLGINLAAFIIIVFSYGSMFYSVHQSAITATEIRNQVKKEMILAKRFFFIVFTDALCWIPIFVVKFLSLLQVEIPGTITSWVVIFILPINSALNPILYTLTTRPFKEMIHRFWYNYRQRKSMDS

As usually defined, the Kd is a measure of binding affinity in units of concentration. Higher therefore signals lower affinity. In turn, Relaxin H2 (human) (ligand) came in with a Kd of 0.02 µM.
